# The RNAGym collection of RNA variant scans (doi:10.1073/pnas.2313332121)
# This sample holds only a part of the variants without activity.
# B1: TPR 5TU (parent)
# chain: GGAUCUUCUCGAUCUAACAAAAAAGACAAAUCUGCCACAAAGCUUGAGAGCAUCUUCGGAUGCAGAGGCGGCAGCCUUCGGUGGCGCGAUAGCGCCAACGUUCUCAACUAUGACACGCAAAACGCGUGCUCCGUUGAAUGGAGUUUAUCAUG
# Variants of: B1
# Assay: polymerase ribozyme fitness, log enrichment relative to wild type (log ratio); higher = more active; in vitro selection for triplet polymerase activity
# Procedure, shortened: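 Mutant libraries of each subunit of a heterodimeric triplet polymerase ribozyme were built by PCR and transcribed. Each library went through one round of in vitro selection in triplicate: annealing with biotinylated primer, partner subunit and triplets, frozen incubation at −7 °C, gel excision of extended constructs, streptavidin-bead capture and RT-PCR. Input and output libraries were Illumina-sequenced; only genotypes with ≥10 input reads and ≥1 read per output were kept. Fitness is log2(genotype enrichment/wild-type enrichment), using inverse-variance-weighted replicate averages.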
row,Variant,polymerase ribozyme fitness (log ratio)
1,A52G C69A,-3.71
2,C51U C95G,-1.68
3,C51U C95U,-1.69
4,A52G G94C,-1.32
5,A52C C93G,-3.65
6,A52G G58C C79U A98U U101G C108A,≤ -4.2
7,A52C A73G,-1.89
8,A52C A73U,-3.14
9,C51U G94C,-0.484
10,C51U G94A,-1.11
11,A52G A73U G84A,-2.15
12,A52C C54A,≤ -4.2
13,A52U G74A C87A A119U U148G,≤ -4.2
14,A52C G80C,≤ -4.2
15,C51U G84A C96A C149U,-2.56
16,C51U G92U C99A A106G C123G C129U,-2.74
17,A52G C108U,-2.1
18,A52G C54G G67C G81A C95G,-3.86
19,A52C G58A A147U,-0.233
20,A52G A106G,-0.771
21,C51U U53A C93A G124U,-3.59
22,A52G G81A,-0.481
23,A52G G84U,-1.32
24,A52G G84A,-1.03

row,Variant,polymerase ribozyme fitness (log ratio)
1,C51U U78G C96U,≤ -4.2
2,C51U G88C,-4.09
3,A52C G70C C85U G94C C129A,≤ -4.2
4,A52C C85A,-3.22
5,A52U A122G,-3.43
6,C51U G94A C118U,-1.44
7,C51U U56A,-0.892
8,A52U C116A,0.243
9,A52C U55A G74U G88U G92U C105G A107G,≤ -4.2
10,A52G U53C G58A A142C,-3.35
11,C51U U56G A73C C79G C93G A137C,≤ -4.2
12,C51U C108U,-3.72
13,A52G G68U C99G,≤ -4.2
14,A52G G84A G136A,-0.512
15,C51U G81C C87U C116A G124A U134A U148A,≤ -4.2
16,A52G A107U,-3.56
17,A52G A107C,-3.09
18,A52G C57A G94U G117U A121C C131G,≤ -4.2
19,A52U C95A C103G C116G G133U,≤ -4.2
20,C51U C69G C118G A142C C149G,≤ -4.2
21,C51U C72U G92C A98G U127G A138C G140A,≤ -4.2
22,A52C G92U G152U,-3.32
23,C51U G84U,-1.52
24,C51U G84A,-0.489

row,Variant,polymerase ribozyme fitness (log ratio)
1,C51U G70U G88A G94U A106C,≤ -4.2
2,A52G G83C C105A,-2.55
3,A52U C54U G92A A98G A120G U139C U144C U151A,≤ -4.2
4,A52U C57A U135C,-3.88
5,A52G C57G C87U,-1.27
6,A52G U56C C93A,-2.44
7,A52C U53A G65A A66C C79U C149U,≤ -4.2
8,C51U C85A,-2.63
9,C51U C85G,-2.53
10,A52G C93U C116U,-1.48
11,A52C C69G G84U A115C,≤ -4.2
12,C51U C75U G88A C93U G94A G136C,≤ -4.2
13,A52G G58C G68A C76A C85U U90G G117U,≤ -4.2
14,A52C G59A G68A C79U G92U U104G,≤ -4.2
15,C51U U56A A73U G86A,-4.02
16,A52C C99U,-1.81
17,A52C C99G,-4.11
18,A52U A66G C87G A97G,≤ -4.2
19,C51U C75G G88A U130A,≤ -4.2
20,A52C A122G,-1.4
21,A52G G88A C118A C123U G141C,≤ -4.2
22,A52C C96U A119U U130G,≤ -4.2
23,A52U G80A,-3.35
24,A52C G58U G59A C85A,-2.15

row,Variant,polymerase ribozyme fitness (log ratio)
1,A52C G81A G86U,-2.1
2,A52G G83U U101A A115U,-3.39
3,C51U G88U U90C G94A C95U A147G,≤ -4.2
4,A52G C96U A122U,-0.85
5,C51U G59A C85G A137U,≤ -4.2
6,A52G U144A,-0.831
7,A52G U55A G92U,-0.803
8,C51U G81C C85U G117C U134A A137G,-3.98
9,A52C G58A C93A C118U,-3.55
10,A52G U56A,-0.876
11,C51U G62A U139G,-0.262
12,C51U G92U,-1.86
13,A52U C87U C103U,-2.81
14,A52G C76U C93G,-2.91
15,A52U G59A A98G,-1.21
16,A52C C54U G68A C93U C103A A106G A110U,≤ -4.2
17,A52G U78C,-0.764
18,A52C U90G,≤ -4.2
19,A52U C75U A147U,-2.82
20,A52C G83C C87U A122G,≤ -4.2
21,A52U A73U G92U,-3.66
22,A52C U55C G83A U151A G152A,≤ -4.2
23,A52G U109G A122U,-1.46
24,A52C C69A C96A,-3.18

row,Variant,polymerase ribozyme fitness (log ratio)
1,A52G A64U G81A G86C G92A A122C G143C,≤ -4.2
2,A52C G70A U90G A106U,≤ -4.2
3,A52G G67U A142G,-3.52
4,A52C U53A G88C C95U U145C,≤ -4.2
5,C51U U53A G65U G84U C93A C116G U135G,≤ -4.2
6,A52C G84A C116G A120U,-1.12
7,A52G G70C U78G C93G G141C,≤ -4.2
8,A52C A98U,-0.983
9,A52C C87U,-0.789
10,A52G U53A A89C C93U,-2.02
11,C51U C116U A121C G152U,-3.78
12,A52G G88U,≤ -4.2
13,C51U C76U C96U A137U U144C U151A,≤ -4.2
14,A52G C103U,-1.06
15,A52G A73G,-0.266
16,A52U A91U U139G U144A,≤ -4.2
17,C51U C131G,-3.49
18,A52C G94A,-0.384
19,A52U G59A A98G C131U,-1.78
20,A52G U55A C87G,≤ -4.2
21,A52G A60G C75U G88U G92A C95U C116U,≤ -4.2
22,C51U U56A G71C G84A G140A A142U,≤ -4.2
23,A52G G58C C99U,-0.284
24,A52G G62A C85U,-1.4

row,Variant,polymerase ribozyme fitness (log ratio)
1,A52U U53A,-1.23
2,A52G C93U G94C A97C,-3.73
3,A52U A150G,-1.24
4,A52C A91U C93A G133C,≤ -4.2
5,A52C U56A G67C G84A U139G U144A,≤ -4.2
6,C51U U82A C95U,-1.29
7,A52G G86A,-0.796
8,C51U U61A G86C,-4.06
9,C51U G58U U77G C96A,-4.18
10,A52G U82A,-0.467
11,A52G G86U C96G U144C U151C,≤ -4.2
12,A52C C57U C85U U135A,-1.62
13,A52U G136A,-0.592
14,C51U C96U,-0.419
15,A52G G84U U144G,-1.56
16,A52C C103A A147C,≤ -4.2
17,C51U C95A A98U C116G,0.822
18,C51U C99U,-0.392
19,C51U C75U C96U G143C,-4.11
20,A52U G84U G86A A91U A121U,≤ -4.2
21,A52U G84A G143C,-3.92
22,A52G A73G C99U G117A,-1.7
23,A52C G92U C103G A106C,≤ -4.2
24,A52G G141A,-1.24

row,Variant,polymerase ribozyme fitness (log ratio)
1,A52G A89U G124U G136C,-3.18
2,A52G C57A G83U A91G C95A,-4.15
3,C51U C87G C93G C105G A106C A113G,≤ -4.2
4,A52U C93A U139G,≤ -4.2
5,A52C G143C,-3.51
6,A52C G84U C96U U144A,≤ -4.2
7,C51U C87U,-1.13
8,C51U C87A,≤ -4.2
9,A52C G84A G88C,-4.09
10,A52C G68A G94C C99U C108G A120C G143C,≤ -4.2
11,A52C C72U C96A C123U,-2.72
12,C51U U55A U56A G58C U82A A150C,≤ -4.2
13,A52C A98G C132G,≤ -4.2
14,A52C G67C G83U C108U G124U,≤ -4.2
15,A52C G88A U146G A150C,≤ -4.2
16,A52G A98U,-2.02
17,C51U U56A A73U U78G A91U G141C G152A,-3.97
18,A52G A66U A91U,≤ -4.2
19,A52G U90A A142G,≤ -4.2
20,A52C U55A U56A G86C,-4.01
21,A52C U55A G59U,0.0736
22,A52U C96A,-2.92
23,A52G C87U G141A U148A,≤ -4.2
